Measured values from patent publication US20170298395A1, “AUTOTROPHIC HYDROGEN BACTERIA AND USES THEREOF” (Ohio State Innovation Foundation, priority 2011, published 2017).
Where two headings read alike, the source gives them in different places.

B1: constitutive cbbL promoter: constitutive R. eutropha cbbL promoter, SEQ ID NO: 30 (nucleic acid)
DNA: GCAACTGGCGAAGGGTAAGGGCGCGCAGGAAGGACGACATGGGCGGTTGGGGGCGGCTTTGGATGGTCCCGTGATGTGCAGCTTGGTCCGCACTTAAGGGATTGCTTATACAGGGGCTAAGAATATCTGAATTGACATTATGTGGGTGGGCTTATATAATTGCATCAACGCAGCAGCCAAGACGCTCAACCACGCAAGGAGACAAGC
B2: D144N (protein)
chain: MSSFLRALTLRQLQIFVTVARHASFVRAAEELHLTQPAVSMQVKQLESVVGMALFERVKGQLTLTEPGDRLLHHASRILGEVKDAEEGLQAVKDVEQGSITIGLISTSKYFAPKLLAGFTALHPGVDLRIAEGNRETLLRLLQNNAIDLALMGRPPRELDAVSEPIAAHPHVLVASPRHPLHDAKGFDLQELRHETFLLREPGSGTRTVAEYMFRDHLFTPAKVITLGSNETIKQAVMAGMGISLLSLHTLGLELRTGEIGLLDVAGTPIERIWHVAHMSSKRLSPASESCRAYLLEHTAEFLGREYGGLMPGRRVA

Assays:
[1] = system: R. eutropha; assay: Relative promoter strength / gene expression in R. eutropha; type: cell-based; conditions: autotrophic growth conditions
Protocol: The lac and tac promoters are E. coli promoters, but have been used to drive gene expression of other genes in R. eutropha. The pha promoter is a native R. eutropha promoter and drives expression of genes involved in polyhydroxybutyrate (PHB) production. The relative strength of these promoters in R. eutropha was determined. The pha promoter was 1.2 times stronger than the lac promoter and that the tac promoter was 2.1 times stronger than the lac promoter (1). The cbbM and cbbL promoters were also examined. The cbbM and cbbL promoters are strong promoters which drive expression of the genes that encode for RubisCO in Rhodosporilium rubrum/Rhodobacter sphaeroides/Rhodobacter capsulatus and R. eutropha, respectively. […] Each promoter was placed in the vector pBBR1MCS3, and the ability of these gene expression vectors was assessed (Table 4). The pBBR1 vector has Accession No. U02374 (4707 bp). The pBBR1MCS-3 vector has Accession No. U25059 (5228 bp). Plasmid pRPS-MCS3 (SEQ ID NO: 36) (see Journal of Molecular Biology, 331(3): 557-569 (2003)) derives from plasmid pBBR1-MCS3.
Vectors were made with the native cbbL and constitutive cbbL promoters. The cbbL promoter is native to R. eutropha and is highly expressed and regulated. […] To construct strains with a constitutive cbbL promoter, the lac promoter within the pBBR1MCS-3 vector was removed and replaced by the constitutive cbbL promoter. […]

[2] = system: RubisCO; type: cell-based, Ralstonia eutropha
[3] = system: cbbL transcript; type: cell-based, Ralstonia eutropha; conditions: chemoautotrophic growth
[4] = system: Ralstonia eutropha cbbR deletion reporter strain; type: cell-based; conditions: chemoautotrophic, CO2/H2/O2 atmosphere, minimal media
[5] = system: cbb promoter; type: cell-based, Ralstonia eutropha
[6] = Table 9, chemoautotrophic growth conditions
[7] = Table 12, chemoautotrophic (induced) growth
[8] = Table 12, chemoheterotrophic (repressed) growth

| Molecule | increase in gene expression [1] [fold] | level of RubisCO relative to wild-type CbbR ([2]; CA growth conditions) [fold] | Chemoautotrophic RubisCO activity [2, 6] | Chemoautotrophic RubisCO activity [2, 7] | Chemoheterotrophic RubisCO activity [2, 8] | increase in transcription over wild type CbbR (RT-PCR, FIG. 22) ([3]; 26 cycles of PCR) [fold] | increase in cbb transcript over wild type CbbR (RT-PCR, FIG. 21) ([3]; OD 0.2) [fold] | Doubling Time [4] [h] | Chemoautotrophic β-galactosidase activity [5, 6] | Chemoautotrophic β-galactosidase activity [5, 7] | Chemoheterotrophic β-galactosidase activity [5, 8] |
| --- | --- | --- | --- | --- | --- | --- | --- | --- | --- | --- | --- |
| B1 | 2.4 |  |  |  |  |  |  |  |  |  |  |
| B2 |  | 2.2 | 188 nmol/min/mg of protein | 314 nmol/min/mg of protein | 26 nmol/min/mg of protein | 1.8 | 2.4 | 6.8 | 6932 nmol/min/mg of protein | 6932 nmol/min/mg of protein | 809 nmol/min/mg of protein |
